In article PMC2120799:

Molecular target: cdk2 (NIH-3T3 cells) (mouse (endogenous in NIH-3T3)) (UniProt P97377)
Test: co-IP

Row | stoichiometry N (mol per mol cdk2) | Substance
1 | < 1 | p27 (NIH-3T3 cells) (from UniProt P46414 1-197) (natural protein)
2 | < 1 | p21 (NIH-3T3 cells) (from UniProt P39689 1-159) (natural protein)
